Positions count from the first letter of the chain named. Numbers in names are those of the source.
B1: CyHPPD-02: native Cyanobacteria HPPD, SEQ ID NO: 141 (protein)
chain: MEFDYLHLYVDDYQSAHRCYQRQWGFTCVNKIITDQGITGIYQQGQILLLISASESSLSRYADYLQKHPPGVGEVAWQVANWQKIQHQLSELQIETTPVIHPLTKAEGLTFLLWGDVHHSIYPVRSELNQNKTLHGVGLTTIDHVVLNIAADQFTQASQWYQQVFGWSVQQSFTVNTPHSGLYSEALASANGKVQFNLNCPTNNSSQIQTFLANNHGAGIQHVAFSTTSITRTVAHLRERGVNFLKIPTGYYQQQRNSSYFNYASLDWDTLQCLEILLDDQDNTGERLLLQIFSQPCYGVGTLFWEIIERRHRAKGFGQGNFQALYEAVETLEKQLEVP
modifications: CyHPPD Amino Acid Sequence (Cyanobacteria)
B2: CyHPPDm-F372A-02: Cyanobacteria HPPD mutant F372A, SEQ ID NO: 144 (protein)
chain: B1 chain with F293A
modifications: CyHPPDm-F372A Amino Acid Sequence
B3: AhHPPDm-F372A-02: Arachis hypogaea HPPD mutant F372A, SEQ ID NO: 138 (protein)
chain: MATAYTYAHAVTYCNSQHNPPIIPILSTNQHPPRVTLPSSIPHFISTITTFNLKHFPSHSLHTVMVTQTQQNAPSSSPELGFKLVGFKNFVRTNPKSDRFKVIRFHHVEFWCTDATNTASRFSWGLGMPIVAKSDLSTGNAVHASYLLRSGDLNFLFSAPYSASIAGDGASASFPSFSASDCHSFAAKHGLAVRAVAIEVEDASAAFSASVANGAKPVSPAVLLDNSVGFAEVHLYGDVVLRYISYSAPTRESNLNPTLRFLPGFEAVEADSSFPELDYGIRRLDHAVGNVPELAPAVNYLKKFTGFHEFAEFTAEDVGTSESGLNSVVLASNDEMVLLPLNEPVYGTKRKSQIETYLEHNEGAGLQHLALVSEDIFRTLREMRKRSTIGGFQFMPSPPPTYYRNLKKRAGDVLSDEQIKECEELGILVDRDDQGTLLQIATKPVGDRPTIFIEIIQRIGCMLKDEEGKVYQKGGCGGFGKGNFSELFKSIEEYEKTLESRRTA
modifications: AhHPPDm-F372A Amino Acid Sequence
B4: N1HPPD-02: native Sphingobium sp. N1 HPPD, SEQ ID NO: 147 (protein)
chain: MAADSENPLGLHGFAFAEFTSPDPAAMARQFEQLGFVPAARRKDRGLTLYRQGRIAFILNAGEGEQASAFRAAHGPSANGMAFNVADAKAAHRHAIQSGATDADTAQSALPGTYAIEGIGDSLLYLVDSDPFADWDEVPGWREASAERGVGLDLLDHLTHNVRRGQMRVWSEFYATLFGFEEQKFFDIKGQATGLFSQAMIAPDHEIRIPLNESQDDNSQIEEFIREYNGEGIQHLALTTPDIYSTVEKLRANGVRLQDTIDTYYDLVDERVPGHGEDLARLRKNRILIDGDVHDEGLLLQIFTETMFGPIFFEIIQRKGNEGFGNGNFQVLYESIELDQIRRGVVTVDA
modifications: N1HPPD Amino Acid Sequence (Sphingobacterium)
B5: N1HPPDm-F372A-02: Sphingobium sp. N1 HPPD mutant F372A, SEQ ID NO: 150 (protein)
chain: B4 chain with F303A
modifications: N1HPPDm-F372A Amino Acid Sequence
B6: TaHPPD-02: native Triticum aestivum HPPD, SEQ ID NO: 39 (protein, listed as Triticum aestivum)
chain: MPPTPTTPAATGAGAAAAVTPEHARPRRMVRFNPRSDRFHTLSFHHVEFWCADAASAAGRFAFALGAPLAARSDLSTGNSVHASQLLRSGNLAFLFTAPYANGCDAATASLPSFSADAARRFSADHGLAVRSIALRVADAAEAFRASVDGGARPAFSPVDLGRGFGFAEVELYGDVVLRFVSHPDGTDVPFLPGFEGVSNPGAVDYGLTRFDHVVGNVPELASAAAYVAGFTGFHEFAEFTTEDVGTAESGLNSMVLANNSEGVLLPLNEPVHGTKRRSQIQTFLEHHGGPGVQHIAVASSDVLRTLREMRARSAMGGFDFLPPPLPKYYEGVRRIAGDVLSEAQIKECQELGVLVDRDDQGVLLQIFTKPVGDRPTLFLEMIQRIGCMEKDERGEEYQKGGCGGFGKGNFSELFKSIEDYEKSLEAKQSAAVQGS
modifications: TaHPPD Amino Acid Sequence
B7: N2HPPD-02: native Sphingobium sp. N2 HPPD, SEQ ID NO: 153 (protein)
chain: MTLFDNPLGLDGFEFVEFSAPAKGMLEPVFAAMGFVMIARHRSKDVQLWRQGGINLIANYEPRSPAAYFAAEHGPSACGMGWRVRNAAKAYELAVERGAEPVDVKTGPMELRLPAIRGIGGSIIYLIDRYEDEDGGLSIYDIDFVYEPGVDRHPEGAGFKIIDHLTHNVYGGRMAHWASFYERVFGFREIRYFDIKGEYTGLTSKAMTAPDGKIRIPLNEEGKAGGGQIEEFLRAYNGEGIQHIAFLCDDLIAAWDKLKALGTPLMTAPPATYYEMLDERLPGHGEPVAELQKRGILLDGSTQQGDPRLLLQIFGQATIGPVFFEFIQRKKDEGFGEGNFTALFESMERDQLRRGTLNAGESA
modifications: N2HPPD Amino Acid Sequence (Sphingobacterium)

These molecules were tested on Arabidopsis thaliana T1 plants (assay: Topramezone tolerance of transgenic Arabidopsis thaliana T1 plants (pesticide damage grade by bleached leaf area, score, resistance evaluation)). Details: HPPDs from different species; number of plants (of 16) in this grade; topramezone 25 g ai/ha (1x), 7 DAT.
Type: in vivo
Outline: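 Herbicide tolerance was judged per plant on a bleaching scale (grade 0 no bleaching to grade 3 fully bleached) 7 DAT. Topramezone doses were 0, 25, 50 and 100 g ai/ha on 18-day-old T1 and wild-type plants.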

| Molecule | Classification and statistics of pesticide damage grade Grade 0 | Classification and statistics of pesticide damage grade Grade 1 | Classification and statistics of pesticide damage grade Grade 2 | Classification and statistics of pesticide damage grade Grade 3 |
| --- | --- | --- | --- | --- |
| B1 | 0 | 0 | 0 | 0 |
| B2 | 1 | 14 | 1 | 0 |
| B3 | 2 | 12 | 2 | 0 |
| B4 | 2 | 12 | 1 | 1 |
| B5 | 16 | 0 | 0 | 0 |
| B6 | 0 | 0 | 0 | 16 |
| B7 | 0 | 1 | 15 | 0 |

Same assay, conditions: HPPDs from different species; number of plants (of 16) in this grade; topramezone 100 g ai/ha (4x), 7 DAT

| Molecule | Classification and statistics of pesticide damage grade Grade 0 | Classification and statistics of pesticide damage grade Grade 1 | Classification and statistics of pesticide damage grade Grade 2 | Classification and statistics of pesticide damage grade Grade 3 |
| --- | --- | --- | --- | --- |
| B1 | 0 | 0 | 0 | 0 |
| B2 | 0 | 1 | 15 | 0 |
| B3 | 0 | 0 | 10 | 6 |
| B4 | 0 | 4 | 8 | 4 |
| B5 | 16 | 0 | 0 | 0 |
| B6 | 0 | 0 | 0 | 16 |
| B7 | 0 | 0 | 0 | 16 |

Same assay, conditions: HPPDs from different species; score for pesticide damage 0-100; topramezone 25 g ai/ha (1x), 7 DAT

| Molecule | Scores |
| --- | --- |
| B1 | 16 |
| B2 | 33 |
| B3 | 33 |
| B4 | 35 |
| B5 | 0 |
| B6 | 100 |
| B7 | 65 |

Same assay, conditions: HPPDs from different species; score for pesticide damage 0-100; topramezone 100 g ai/ha (4x), 7 DAT

| Molecule | Scores |
| --- | --- |
| B1 | 16 |
| B2 | 65 |
| B3 | 79 |
| B4 | 67 |
| B5 | 0 |
| B6 | 100 |
| B7 | 100 |

Same assay, conditions: HPPDs from different species; topramezone 25 g ai/ha (1x), 7 DAT

| Molecule | Resistance evaluation |
| --- | --- |
| B1 | non-resistant (non-resistant plants (scores 68-100)) |
| B2 | moderately resistant (moderately resistant plants (scores 16-33)) |
| B3 | moderately resistant (moderately resistant plants (scores 16-33)) |
| B4 | poorly resistant (poorly resistant plants (scores 34-67)) |
| B5 | highly resistant (highly resistant plants (scores 0-15)) |
| B6 | non-resistant (non-resistant plants (scores 68-100)) |
| B7 | poorly resistant (poorly resistant plants (scores 34-67)) |

Same assay, conditions: HPPDs from different species; topramezone 100 g ai/ha (4x), 7 DAT

| Molecule | Resistance evaluation |
| --- | --- |
| B1 | non-resistant (non-resistant plants (scores 68-100)) |
| B2 | poorly resistant (poorly resistant plants (scores 34-67)) |
| B3 | non-resistant (non-resistant plants (scores 68-100)) |
| B4 | poorly resistant (poorly resistant plants (scores 34-67)) |
| B5 | highly resistant (highly resistant plants (scores 0-15)) |
| B6 | non-resistant (non-resistant plants (scores 68-100)) |
| B7 | non-resistant (non-resistant plants (scores 68-100)) |
